Laboratory results published in patent US20250277031A1.
Like-named read-outs stand apart in the source and are kept apart here.

Experiments:
[1] = biological target: recombinant human CD47 (human) (UniProt Q08722); assay: ELISA, plate coated with recombinant human CD47, OD450
[2] = biological target: recombinant human CD47 (human) (UniProt Q08722); assay: ELISA, plate coated with 1 µg/mL recombinant human CD47, OD450
[3] = biological target: recombinant human CD47 (human) (UniProt Q08722); assay: SPR, Biacore X100, antibody captured on Protein A chip, CD47 as analyte
[4] = biological target: recombinant human CD47 (human) (UniProt Q08722); assay: as above; remark: listed apart in the source
[5] = biological target: recombinant human CD47-Fc protein (ACROBiosystems, catalog number CD7-H52A5) (human) (UniProt Q08722); assay: blocking ELISA: plate coated with human CD47-Fc, biotin-labelled SIRPα as the blocked ligand, falling OD450 curve; the sheet labels the half-maximal value EC50
recombinant human CD47-Fc protein (ACROBiosystems, catalog number CD7-H52A5) (human), sequence (Q08722 19-139 limits assumed): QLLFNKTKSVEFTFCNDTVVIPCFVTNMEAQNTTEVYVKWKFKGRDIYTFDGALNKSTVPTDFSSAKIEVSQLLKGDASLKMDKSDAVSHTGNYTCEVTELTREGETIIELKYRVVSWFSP

[6] = biological target: recombinant human CD47-Fc protein (ACROBiosystems, catalog number CD7-H52A5) (human) (UniProt Q08722); assay: blocking ELISA: plate coated with human CD47-Fc, 2 nM biotin-labelled SIRPα as the blocked ligand, falling OD450 curve; the sheet labels the half-maximal value EC50

recombinant human CD47 (human), sequence (Q08722 19-139 limits assumed): as above

B1: control CC-90002 (a patent sequence from WO2016109415) (antibody, from another filing, V domains shown)
VH: QMQLVQSGAEVKKTGSSVKVSCKASGFNIKDYYLHWVRQAPGQALEWMGWIDPDQGDTEYAQKFQDRVTITRDRSMSTAYMELSSLRSEDTAMYYCNAAYGSSSYPMDYWGQGTTVTV
VL: NIQMTQSPSAMSASVGDRVTITCKASQDIHRYLSWFQQKPGKVPKHLIYRANRLVSGVPSRFSGSGSGTEFTLTISSLQPEDFATYYCLQYDEFPYTFGGGTKVEIK
Question: For B1, which EC50 [1] is on record?
Answer: The EC50 was 0.033 nM.

Question: What about the EC50 [2] of the same binder?
Answer: The EC50 was 0.058 nM.

Question: What about the Kd [3] of the same binder?
Answer: Its Kd is 1.16 nM.

Question: What about the koff [3] of the same binder?
Answer: The koff was 0.00176 s⁻¹.

Question: And the kon [3]?
Answer: Its kon is 1.52e+06 M⁻¹ s⁻¹.

Question: What about the Kd [4] of the same binder?
Answer: The Kd was 0.857 nM.

Question: What about the koff [4] of the same binder?
Answer: Its koff is 0.00135 s⁻¹.

Question: What about the kon [4] of the same binder?
Answer: The kon was 1.57e+06 M⁻¹ s⁻¹.

Question: What about the IC50 [5] of the same binder?
Answer: The IC50 was 0.774 nM.

Question: And the IC50 [6]?
Answer: Its IC50 is 1.43 nM.
